Source: US9777041B2, “Protein nanofibers from self-assembling pentamers” (New York University, priority 2013, dated 2017)

What was measured:
[1] = Transmission electron microscopy of protein fibers; assay type: physicochemical; conditions: pH 4, 50 mM PB
Experimental: Transmission electron microscopy: A JEOL JEM-1400 transmission electron microscope (TEM) was used to study the supramolecular protein structure. […] After 1 minute, the grids were blotted using filter paper and rinsed with 3-4 drops Milli Q water to remove excess salts from the buffer. After blotting with filter paper, the sample was negatively stained by adding 3 μL of 1% filtered uranyl acetate, blotted using filter paper, and dried at room temperature for 10-15 minutes. ImageJ software was used to measure the fibers dimensions.

[2] = ATR-FTIR secondary structure of solid-state protein; assay type: physicochemical; conditions: for Random, percent composition / α helix, percent composition / β sheet, percent composition: 10 μM protein in 50 mM PB
Experimental: Attenuated Total Reflectance Fourier Transform Infrared Spectroscopy (ATR-FTIR): ATR-FTIR experiments were performed using Perkin Elmer System 2000 FT-IR with DuraSamplIR II T diamond ATR accessory and equipped with a MCT-A detector. Approximately, 5 μL of peptide solution (10 μM in 50 mM PB, pH 4, 8, and 10) was added on the diamond ATR surface. The spectrum (128 scans) was measured at room temperature over a range of 4000-400 cm^−1 with 0.5 cm^−1 resolution. PeakFit software was used to process the data, which involved a 2nd derivative zero baseline correction of the amide I region between 1700-1600 cm^−1 and deconvolution of peaks with a Gaussian function. All readings represent the average of two trials.
To quantifying the secondary structure of the protein in its solid-state, ATR-FTIR experiments were conducted to evaluate secondary structure of insoluble Q fibers at pH 4, 8, and 10 (Table 8). The frequency measured in the regions of the amide I and amide II absorptions of a protein correlate to the secondary structural motifs within the protein, and were thereby used to assess conformation of the protein in its solid-state (FIGS. 20a-20d). Secondary structure conformation based on ATR-FTIR data for Q in 50 mM PB at pH 4, 8, and 10, and in the presence of curcumin at a 5:1 molar ratio with Q at pH 4 are shown in […]. Percent composition was determined from relative areas of peaks fit to spectra (FIGS. 20a-20d).
Secondary structure conformation based on ATR-FTIR data for 10 μM protein in 50 mM PB before and after templation of AuNPs is provided in Table 10. Percent composition was determined from relative areas of peaks fit to spectra (see spectra FIGS. 37a-37d, FIGS. 38a-38d).

[3] = curcumin at 5:1 molar ratio, pH 4

Q: Q54 protein, SEQ ID NO:2, variant of COMPcc; coiled-coil that self-assembles into homopentamers and nanofibers (MRGSHHHHHHGSIEGRVKEITFLKNTAPQMLRELQETNAALQDVRELLRQQSKL)
fiber formation seen by TEM [1]: regularly forms fibers with high levels of structure | protofibril diameters [1]: 3.5±0.5 nm | fiber diameters ([1]; listed as Q54): 50-100 nm | protofibril diameters ([1]; listed as Q54): 3-4 nm | Random, percent composition ([2]; +AuNP (after templation)): 27% | α helix, percent composition ([2]; +AuNP (after templation)): 30% | β sheet, percent composition ([2]; +AuNP (after templation)): 43% | Random, percent composition ([2]; before templation of AuNPs): 0% | α helix, percent composition ([2]; before templation of AuNPs): 65% | β sheet, percent composition ([2]; before templation of AuNPs): 35% | α helix % composition [2, 3]: 79% | β sheet % composition [2, 3]: 10% | Random coil % composition ([2]; curcumin at 5:1 molar ratio, pH 4, 1640-1648 cm^−1): 12% | β sheet % composition ([2]; pH 4, 50 mM PB, 1625-1640, 1675-1695 cm^−1): 38% | α helix % composition ([2]; pH 4, 50 mM PB, 1648-1660 cm^−1): 62% | α helix % composition ([2]; pH 8, 50 mM PB): 63% | β sheet % composition ([2]; pH 8, 50 mM PB): 37% | α helix % composition ([2]; pH 10, 50 mM PB): 68% | β sheet % composition ([2]; pH 10, 50 mM PB): 32%
